{"source": "paper PMC4745738", "biological_target": "TRAIL-R"}
{"substance": "TNF-related apoptosis-inducing ligand (TRAIL) (from UniProt P50591 1-281)", "values": [{"measurement": "inhibition of specific lysis of Nalm6 cells by pDC-activated NK cells (5:1 E:T ratio) with a blocking anti-TRAIL antibody", "value": 50, "unit": "%"}, {"measurement": "inhibition of specific lysis of REH cells by pDC-activated NK cells (5:1 E:T ratio) with a blocking anti-TRAIL antibody", "value": 66, "unit": "%"}]}
